# Where “and” joins values, the source holds several entries; their conditions need not be identical. Equal values may be shown once.
# B1: H7.5 Fab (papain digest of H7.5 IgG) (Fab, V domains shown)
# VH: QVQLVQSGAEVKKPGASVKVSCKASGYTLTRYYFHWVRQAPGQGFEWMGIINPNGGGTSYAQKFGDRVIMTSDMSTSTIYMELSSLRSEDTAVYYCARDMPYYHDSGGPLFDLWGQGTLVTVSS
# VL: EIVMTQSPSSLSASVGDRVTITCRPSQSISTFLNWYEQKPGKAPKLLIYDASSLQSGVPSRFSGSGSGTEFTLTISSLQPEDFATYYCQQSFSTPYTFGQGTRLEIK
# Tests used:
# Assay in all cases: cryo-EM structure
# Conditions in all cases: both partners purified
# [1] = target: T1, cleaved H7 NL HA (HA1/HA2), A/Netherlands/219/2003, ectodomain trimer (influenza A virus …, UniProt Q6VMK1)
# T1 construct: copies: 3 + 3
# [2] = target: T2, cleaved H7 Sh2 HA (HA1/HA2), A/Shanghai/2/2013, ectodomain trimer (influenza A virus (A/Shanghai/2/2013))
# T2 construct: copies: 3 + 3
# [3] = target: uncleaved H7 NY HA (HA0), A/New York/107/2003, ectodomain trimer (influenza A virus (A/New York/107/2003))
binder,measurement,setting,value
B1,stoichiometry N,[1],3 Fabs per trimer and 2 Fabs per trimer
same,stoichiometry N,[2],3 Fabs per trimer
same,stoichiometry N,[3],3 Fabs per trimer

# From article PMC6375650 (PLoS Biology, 2019)
